# Results: PMC6805999, “Molecular Mechanism of SR Protein Kinase 1 Inhibition by the Herpes Virus Protein ICP27” (mBio, 2019)
# Square brackets hold non-standard residues; d marks the D form. Ends that are not written are not given here.
# B1: synthetic peptide of ICP27 103-155, unmodified (peptide)
# peptide: SVWSRLGARRPSCSPEQHGGKVARLQPPPTKAQPARGGRRGRRRGRGRGGPGA
# notes: also called unmodified ICP27^103–155; nonmethylated ICP27^103–155 peptide; source: synthetic peptide (Peptide Protein Research)
# B2: synthetic peptide of ICP27 103-155, dimethylated on R138, R148 and R150 (peptide)
# peptide: SVWSRLGARRPSCSPEQHGGKVARLQPPPTKAQPA[ADMA]GGRRGRRRG[ADMA]G[ADMA]GGPGA
# notes: HSV-1 ICP27, residues 103 to 155; also called methylated ICP27^103–155; methylated ICP27^103–155 peptide; source: synthetic peptide (Peptide Protein Research)
# Key:
# [1] = target: T1, GB1-SRPK1 (full-length SRPK1 with N-terminal GB1 solubility tag) (Homo sapiens, UniProt Q96SB4); assay: Isothermal titration calorimetry (ITC) of ICP27 peptides with GB1-SRPK1; type: binding; conditions: 25°C, 10 μM GB1-SRPK1 in cell, 120 μM peptide in syringe, 20 mM HEPES, 150 mM NaCl, 1 mM TCEP pH 7.4, single-site model, mean of 3 runs (± SD)
# T1 construct: His tag; made in house; host or cells: E. coli BL21-CodonPlus (DE3)-RP
# T1 sequence (Q96SB4 whole entry): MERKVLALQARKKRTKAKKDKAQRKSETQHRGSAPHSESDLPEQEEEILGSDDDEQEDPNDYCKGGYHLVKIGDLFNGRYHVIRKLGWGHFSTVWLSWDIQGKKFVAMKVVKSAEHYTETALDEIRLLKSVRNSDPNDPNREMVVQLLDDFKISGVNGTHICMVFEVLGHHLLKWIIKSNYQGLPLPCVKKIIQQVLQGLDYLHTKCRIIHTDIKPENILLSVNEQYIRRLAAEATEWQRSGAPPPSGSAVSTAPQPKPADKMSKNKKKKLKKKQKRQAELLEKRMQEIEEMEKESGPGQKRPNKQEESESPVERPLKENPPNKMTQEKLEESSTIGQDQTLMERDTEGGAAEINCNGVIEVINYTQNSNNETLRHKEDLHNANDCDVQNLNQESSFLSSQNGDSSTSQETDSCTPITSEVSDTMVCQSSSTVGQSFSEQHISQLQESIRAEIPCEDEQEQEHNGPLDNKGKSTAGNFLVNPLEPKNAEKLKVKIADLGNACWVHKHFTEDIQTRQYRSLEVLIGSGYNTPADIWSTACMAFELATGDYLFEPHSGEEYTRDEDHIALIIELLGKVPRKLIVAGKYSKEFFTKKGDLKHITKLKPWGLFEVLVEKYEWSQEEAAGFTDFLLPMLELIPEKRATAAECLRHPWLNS
# Text: The RGG box in full-length ICP27 (Fig. 1A) was previously identified by mutagenesis experiments as the segment necessary for interaction with SRPK1 ([27]), with the binding modulated by arginine methylation ([51]). […] To further confirm and map the RGG box interaction with SRPK1, we expressed and purified ^15N-labeled ICP27^103–155 and using the established backbone assignment ([55]) carried out nuclear magnetic resonance (NMR) signal perturbation mapping by comparison of ^1H-^15N correlation spectra in the presence and absence of unlabeled GB1-SRPK1 (Fig. 1E). […] These solution data together confirmed that SRPK1 binds with high affinity to a relatively short region of ICP27 containing the RGG box, with possible further contributions from nearby residues 112 to 121, whereas other residues retain significant flexibility when the peptide is bound. […]
# GB1-SRPK1 and ICP27 peptides were placed into Slide-a-Lyzer G2 cassettes (Thermo Fisher) and dialyzed within identical buffer consisting of 20 mM HEPES, 150 mM NaCl, and 1 mM TCEP [Tris(2-carboxyethyl)phosphine hydrochloride] […] Protein concentrations were measured by absorbance at 280 nm using extinction coefficients ([67]) of 86,580 M^−1 cm^−1 and 5,500 M^−1 cm^−1 for GB1-SRPK1 and ICP27^103–155, respectively. […]
# [2] = target: SRPK1 (Homo sapiens) (UniProt Q96SB4); conditions: cited from earlier work
# Chain of SRPK1 (Homo sapiens) (Q96SB4 whole entry): as above
# [3] = target: T2, full-length SRPK1 tagged with an N-terminal GB1 solubility tag (human, UniProt Q96SB4 1-655); assay: ITC; 10 μM GB1-SRPK1 in the sample cell, 120 μM ICP27 peptide in the syringe; 25°C; 20 mM HEPES, 150 mM NaCl, 1 mM TCEP, pH 7.4; single-site binding model; conditions: both partners purified
# T2 construct: serine-arginine protein kinase 1 (SRPK1), human, full length; probably also carries a His tag used for purification; also called GB1-SRPK1; serine-arginine protein kinase 1; source: E. coli, purified (GST or His tag purification, size exclusion chromatography); not shown: GB1, N-terminal, kept
# T2 sequence (Q96SB4 whole entry): as above
Molecule,Kd [1],Kd [3],further results
CC(C)C[C@H](NC(=O)[C@H](CCCNC(=N)N)NC(=O)[C@H](CO)NC(=O)[C@H](Cc1c[nH]c2ccccc12)NC(=O)[C@@H](NC(=O)[C@@H](N)CO)C(C)C)C(=O)NCC(=O)N[C@@H](C)C(=O)N[C@@H](CCCNC(=N)N)C(=O)N[C@@H](CCCNC(=N)N)C(=O)N1CCC[C@H]1C(=O)N[C@@H](CO)C(=O)N[C@@H](CS)C(=O)N[C@@H](CO)C(=O)N1CCC[C@H]1C(=O)N[C@@H](CCC(=O)O)C(=O)N[C@@H](CCCNC(=N)N)C(=O)N[C@@H](Cc1c[nH]cn1)C(=O)NCC(=O)NCC(=O)N[C@@H](CCCCN)C(=O)N[C@H](C(=O)N[C@@H](C)C(=O)N[C@@H](CCCNC(=N)N)C(=O)N[C@@H](CC(C)C)C(=O)N[C@@H](CCC(N)=O)C(=O)N1CCC[C@H]1C(=O)N1CCC[C@H]1C(=O)N1CCC[C@H]1C(=O)N[C@H](C(=O)N[C@@H](CCCCN)C(=O)N[C@@H](C)C(=O)N[C@@H](CCC(N)=O)C(=O)N1CCC[C@H]1C(=O)N[C@@H](C)C(=O)N[C@@H](CCCNC(=N)N(C)C)C(=O)NCC(=O)NCC(=O)N[C@@H](CCCNC(=N)N)C(=O)N[C@@H](CCCNC(=N)N)C(=O)NCC(=O)N[C@@H](CCCNC(=N)N)C(=O)N[C@@H](CCCNC(=N)N)C(=O)N[C@@H](CCCNC(=N)N)C(=O)NCC(=O)N[C@@H](CCCNC(=N)N(C)C)C(=O)NCC(=O)N[C@@H](CCCNC(=N)N(C)C)C(=O)NCC(=O)NCC(=O)N1CCC[C@H]1C(=O)NCC(=O)N[C@@H](C)C(=O)O)[C@@H](C)O)C(C)C [methylated ICP27^103–155],261 nM,–,–
CC(C)C[C@H](NC(=O)[C@H](CCCNC(=N)N)NC(=O)[C@H](CO)NC(=O)[C@H](Cc1c[nH]c2ccccc12)NC(=O)[C@@H](NC(=O)[C@@H](N)CO)C(C)C)C(=O)NCC(=O)N[C@@H](C)C(=O)N[C@@H](CCCNC(=N)N)C(=O)N[C@@H](CCCNC(=N)N)C(=O)N1CCC[C@H]1C(=O)N[C@@H](CO)C(=O)N[C@@H](CS)C(=O)N[C@@H](CO)C(=O)N1CCC[C@H]1C(=O)N[C@@H](CCC(=O)O)C(=O)N[C@@H](CCCNC(=N)N)C(=O)N[C@@H](Cc1c[nH]cn1)C(=O)NCC(=O)NCC(=O)N[C@@H](CCCCN)C(=O)N[C@H](C(=O)N[C@@H](C)C(=O)N[C@@H](CCCNC(=N)N)C(=O)N[C@@H](CC(C)C)C(=O)N[C@@H](CCC(N)=O)C(=O)N1CCC[C@H]1C(=O)N1CCC[C@H]1C(=O)N1CCC[C@H]1C(=O)N[C@H](C(=O)N[C@@H](CCCCN)C(=O)N[C@@H](C)C(=O)N[C@@H](CCC(N)=O)C(=O)N1CCC[C@H]1C(=O)N[C@@H](C)C(=O)N[C@@H](CCCNC(=N)N)C(=O)NCC(=O)NCC(=O)N[C@@H](CCCNC(=N)N)C(=O)N[C@@H](CCCNC(=N)N)C(=O)NCC(=O)N[C@@H](CCCNC(=N)N)C(=O)N[C@@H](CCCNC(=N)N)C(=O)N[C@@H](CCCNC(=N)N)C(=O)NCC(=O)N[C@@H](CCCNC(=N)N)C(=O)NCC(=O)N[C@@H](CCCNC(=N)N)C(=O)NCC(=O)NCC(=O)N1CCC[C@H]1C(=O)NCC(=O)N[C@@H](C)C(=O)O)[C@@H](C)O)C(C)C [ICP27^103–155],93.9 nM,–,–
SRSF1 (from UniProt Q07955),–,–,Kd [2]: 50 nM
B1,–,94 ± 23 nM,–
B2,–,262 ± 21 nM,–
